Patent US20250277030A1, “ANTI-NAPI2B ANTIBODIES AND METHODS OF USE” (Zymeworks BC Inc., priority 2022, published 2025)

Assays:
[1] = Stability (fragmentation) in PBS pH 7.4 at 37° C. by LC-MS; type: physicochemical; settings: for apparent % desired proteoforms: PBS 37° C., 0.5 mg/ml
Experimental: Samples were removed after 0, 7 and 14 days and stored at −80° C. until characterization. For characterization, samples were thawed at room temperature and 50 μg were incubated with 5 μg of recombinant EndoS endoglycosidase for one hour at room temperature. An immunoprecipitation slurry was generated by a 45 min incubation of 95 μL/sample of magnetic Sepharose streptavidin-coated beads with 15 μg/sample of biotinylated goat anti-Human IgG Fc capture antibody, followed by 4 washes with PBS pH 7.4 with the aid of a DynaMag™-2 magnet (Invitrogen™).
After deglycosylation, plasma-incubated samples were incubated with 95 μL of the immunoprecipitation slurry for 1.5 hrs at room temperature. Then, the slurry underwent 6 washes with PBS pH 7.4 and 2 washes with LC-MS-grade water with the aid of a DynaMag™-2 magnet (Invitrogen™). A final wash with PBS pH 7.4 was performed before elution. Protein was eluted by incubating beads with 35 μL of LC-MS grade water with 20% acetonitrile and 0.1% formic acid for one hour at room temperature. PBS samples were not immunoprecipitated.
5 μL of the eluted sample were transferred to glass inserts in LC-MS vials. For LC-MS analysis, 1 μL of sample were injected into a Waters™ BioSuite Phenyl Column, 1000 Å, 10 μm, 4.6 mm×75 mm using a Waters™ ACQUITY™ UPLC I-Class HPLC system coupled to a Waters™ Synapt™ G2-Si HDMS with a column temperature of 70 C and a flow rate of 0.3 mL/min. Mobile phases consisted of A: LC-MS grade water with 0.1% v/v formic acid, 0.025 v/v trifluoroacetic acid and 10% v/v isopropyl alcohol in, and B: acetonitrile with 0.1% v/v formic acid and 10% v/v isopropyl alcohol. The column was pre-equilibrated in 10% mobile phase B before injection. Then, a 20 min 10 to 27% mobile phase B gradient was applied, followed by a 2 min 27 to 90% mobile phase B gradient and a column wash of 2 min at 99% mobile phase B.
The column was re-equilibrated to 10% mobile phase B for 2 minutes between runs. ESI was performed in positive mode with 3 kV of capillary voltage, 120 C source temperature, 100 V sampling cone voltage, source offset of 80 V, source gas flow of 0 ml/min, desolvation temperature 500 C, cone gas flow 0 μL/Hr, desolvation gas flow […], nebuliser gas flow 6.5 bar. Data format was continuum with analyser set in sensitivity mode, with a m/z range from 500 to 7000.
Peak integration, MS deconvolution and mass assignments were performed in Protein Metrics Byos® v4.0 using a deconvolution window of 60000-160000 Da with an m/z range of 1000-4000. For all time points, the highest intensity deconvoluted mass was assigned as the reference mass of v29456. […]

[2] = biological target: T1, NaPi2b expressed on IGROV-1 cells (Homo sapiens, UniProt O95436); assay: Cellular binding to IGROV-1 cells by flow cytometry (Example 19); settings: NB = no binding (apparent Kd >150 nM)
T1 construct: IGROV-1 cells express endogenous NaPi2b at a high level; endogenous in cells; host or cells: IGROV-1
T1 sequence (O95436 1-690): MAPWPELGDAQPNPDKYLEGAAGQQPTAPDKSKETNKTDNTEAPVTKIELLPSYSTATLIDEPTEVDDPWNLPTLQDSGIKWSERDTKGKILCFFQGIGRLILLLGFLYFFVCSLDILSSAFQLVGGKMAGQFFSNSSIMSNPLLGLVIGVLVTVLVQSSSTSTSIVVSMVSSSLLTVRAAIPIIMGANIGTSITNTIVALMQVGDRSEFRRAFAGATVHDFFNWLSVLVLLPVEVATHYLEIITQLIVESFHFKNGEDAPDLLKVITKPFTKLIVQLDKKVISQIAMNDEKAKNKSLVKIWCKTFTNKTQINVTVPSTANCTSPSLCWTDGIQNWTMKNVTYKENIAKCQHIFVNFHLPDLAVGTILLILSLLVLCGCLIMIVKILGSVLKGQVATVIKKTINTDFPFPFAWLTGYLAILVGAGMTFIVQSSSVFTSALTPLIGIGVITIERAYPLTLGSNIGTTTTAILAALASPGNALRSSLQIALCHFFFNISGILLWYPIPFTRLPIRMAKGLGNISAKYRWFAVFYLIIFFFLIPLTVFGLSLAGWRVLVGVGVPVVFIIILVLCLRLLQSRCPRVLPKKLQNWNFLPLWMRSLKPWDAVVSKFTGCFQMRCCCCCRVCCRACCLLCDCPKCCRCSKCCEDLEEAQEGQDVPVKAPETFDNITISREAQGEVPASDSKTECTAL
Experimental: Briefly, cells were seeded at 50,000 cells/well in conical-bottom 96-well plates and treated with test antibody for 24 hours at 4° C. to prevent internalization. Palivizumab (anti-RSV antibody, v22277) was included as a negative control. […] Following incubation, cells were washed and stained with anti-Human IgG Fc AF647 conjugate (Jackson Immuno Research Labs, West Grove, PA; Cat. No. 109-605-098) at 4° C. for 30 min. Following incubation and washing, fluorescence was detected by flow cytometry on a BD LSRFortessa™ Cell Analyzer (BD Biosciences, Franklin Lake, NJ) with 1,000 minimum events collected per well. The AF647/APC-A GeoMean (fluorescence signal geometric mean, proportional to anti-Human AF647 binding) was calculated for the live cell population using FlowJo™ Version 10.8.1 (BD Biosciences, Franklin Lake, NJ) and plotted for each test antibody using GraphPad Prism Version 9 (GraphPad Software, San Diego, CA).
The ability of the humanized antibody variants v38591 and v29456 to bind to NaPi2b expressed on cells was assessed on endogenous NaPi2b-expressing tumor cell lines IGROV-1 (ovarian adenocarcinoma) and TOV-21G (ovarian carcinoma) by flow cytometry. IGROV-1 and TOV-21G cells express endogenous NaPi2b at high and moderate levels, respectively, as described in Example 10.
Cellular binding was performed according to methods described in Example 13.

Bmax (MFI) [2]: 20,096 MFI
Curve Hill Slope (h) [2]: 1.1
Kd [2]: 1.28 nM
B1: v29456: humanized anti-NaPi2b IgG1/kappa antibody H1L2; VH SEQ ID NO:24, VL SEQ ID NO:29 (antibody, V domains shown)
VH: QVQLVQSGAEVKKPGASVKVSCKASGFTFTSYNVHWVRQAPGQGLEWMGAISPGNGDLSYAQKFQGRVTMTRDTSTSTVYMELSSLRSEDTAVYYCARGRTGMGAVDYWGQGTLVTVSS
VL: DVQMTQSPSSLSASVGDRVTITCRASQDVYSYLNWYQQKPGKAVKLLIYYTSRLQSGVPSRFSGSGSGTDYTLTISSLQPEDFATYYCQQYNIFPWTFGQGTKLEIK
modifications: v29452, v29456, v29460 VH (H1); v29453, v29454, v29455, v29456 VL (L2)
fragmentation in PBS pH 7.4, in words ([1]; 37° C., 7 and 14 days): no evidence of fragmentation
apparent % desired proteoforms ([1]; 0 days): 99.8%
apparent % desired proteoforms ([1]; 7 days): 99.2%
apparent % desired proteoforms ([1]; 14 days): 99.6%
